Assays:
Experiment in all cases: IEDB peptide-MHC binding, purified MHC/competitive/radioactivity; ≥ and ≤ were set here for values at or beyond the usual limits of such assays
HLA-A*02:01 = molecular target: HLA-A*02:01
HLA-A*02:02 = molecular target: HLA-A*02:02
HLA-A*02:03 = molecular target: HLA-A*02:03
HLA-A*02:06 = molecular target: HLA-A*02:06
HLA-A*68:02 = molecular target: HLA-A*68:02
[1] = source organism: Hepacivirus hominis
[2] = source organism: Vaccinia virus WR
[3] = source organism: Mammarenavirus guanaritoense
[4] = source organism: Mammarenavirus choriomeningitidis

Sequence | IC50 (HLA-A*02:01; [2]) | IC50 (HLA-A*02:02; [2]) | IC50 (HLA-A*02:03; [2]) | IC50 (HLA-A*02:06; [2]) | IC50 (HLA-A*68:02; [2]) | other results
KLLIAILGPL |  |  |  |  |  | IC50 (HLA-A*02:01; [1]): 67 nM; IC50 (HLA-A*02:02; [1]): 12 nM; IC50 (HLA-A*02:03; [1]): 5.9 nM; IC50 (HLA-A*02:06; [1]): 12 nM; IC50 (HLA-A*68:02; [1]): 4230 nM
IVSKCIVQSV | 612 nM | 123 nM | 31 nM | 552 nM | 50 nM | 
LVSDCASTI | 2740 nM | 49 nM | 17 nM | 61 nM | 71 nM | 
MIYDLNAVTT | 278 nM | 897 nM | 477 nM | 429 nM | 114 nM | 
FLDWIKDIMT | 50 nM | 424 nM | 146 nM | 140 nM | 4860 nM | 
ILRNYLRLYI | 1 nM | 0.39 nM | 0.9 nM | 65 nM | 2650 nM | 
MVDVSMMSM | 200 nM | 559 nM | 1160 nM | 101 nM | 519 nM | 
NIVTFINDYA | 827 nM | 62 nM | 245 nM | 351 nM | 82 nM | 
SMGNTLTCYV |  |  |  |  |  | IC50 (HLA-A*02:01; [1]): 100 nM; IC50 (HLA-A*02:02; [1]): 44 nM; IC50 (HLA-A*02:03; [1]): 39 nM; IC50 (HLA-A*02:06; [1]): 205 nM; IC50 (HLA-A*68:02; [1]): 2430 nM
FLNGSCGSV |  |  |  |  |  | IC50 (HLA-A*02:01; source organism: SARS-CoV1): 5.8 nM; IC50 (HLA-A*02:02; source organism: SARS-CoV1): 1 nM; IC50 (HLA-A*02:03; source organism: SARS-CoV1): 0.57 nM; IC50 (HLA-A*02:06; source organism: SARS-CoV1): 64 nM; IC50 (HLA-A*68:02; source organism: SARS-CoV1): 318 nM
AVANCVRNL | 1200 nM | 66 nM | 114 nM | 1380 nM | 1350 nM | 
VISVIFYFI | 331 nM | 1.4 nM | 729 nM | 497 nM | 7.6 nM | 
VMCGGSLYV |  |  |  |  |  | IC50 (HLA-A*02:01; source organism: SARS-CoV1): 0.39 nM; IC50 (HLA-A*02:02; source organism: SARS-CoV1): 0.61 nM; IC50 (HLA-A*02:03; source organism: SARS-CoV1): 7.5 nM; IC50 (HLA-A*02:06; source organism: SARS-CoV1): 6.8 nM; IC50 (HLA-A*68:02; source organism: SARS-CoV1): 2910 nM
ALVCYIVMPV |  |  |  |  |  | IC50 (HLA-A*02:01; source organism: SARS-CoV1): 5.6 nM; IC50 (HLA-A*02:02; source organism: SARS-CoV1): 1.2 nM; IC50 (HLA-A*02:03; source organism: SARS-CoV1): 4.4 nM; IC50 (HLA-A*02:06; source organism: SARS-CoV1): 2.9 nM; IC50 (HLA-A*68:02; source organism: SARS-CoV1): 88 nM
YCNYTRFWYI |  |  |  |  |  | IC50 (HLA-A*02:01; [3]): 322 nM; IC50 (HLA-A*02:02; [3]): 1060 nM; IC50 (HLA-A*02:03; [3]): 4340 nM; IC50 (HLA-A*02:06; [3]): 81 nM; IC50 (HLA-A*68:02; [3]): 1340 nM
IASILSLETV | 424 nM | 234 nM | 93 nM | 47 nM | 200 nM | 
DQTHIKTIAV | 650 nM | 2170 nM | 390 nM | 1000 nM | 404 nM | 

Sequence | IC50 (HLA-A*02:01; [2]) | IC50 (HLA-A*02:02; [2]) | IC50 (HLA-A*02:03; [2]) | IC50 (HLA-A*02:06; [2]) | IC50 (HLA-A*68:02; [2]) | other results
YLSSVLLAL |  |  |  |  |  | IC50 (HLA-A*02:01; source organism: SARS-CoV1): 0.55 nM; IC50 (HLA-A*02:02; source organism: SARS-CoV1): 0.14 nM; IC50 (HLA-A*02:03; source organism: SARS-CoV1): 0.31 nM; IC50 (HLA-A*02:06; source organism: SARS-CoV1): 8.2 nM; IC50 (HLA-A*68:02; source organism: SARS-CoV1): 10 nM
IMDKEQLLKI | 890 nM | 311 nM | 288 nM | 1340 nM | 3240 nM | 
LIAGIILLIL | 540 nM | 141 nM | 680 nM | 345 nM | 143 nM | 
NSLILLECFV |  |  |  |  |  | IC50 (HLA-A*02:01; [4]): 7.4 nM; IC50 (HLA-A*02:02; [4]): 1.2 nM; IC50 (HLA-A*02:03; [4]): 47 nM; IC50 (HLA-A*02:06; [4]): 4.2 nM; IC50 (HLA-A*68:02; [4]): 43 nM
TTIGTIAGGV | 978 nM | 741 nM | 43 nM | 84 nM | 0.2 nM | 
NMINKLYGYA | 88 nM | 1.6 nM | 0.44 nM | 137 nM | 292 nM | 
STTENAAYQV | 1180 nM | 928 nM | 4700 nM | 101 nM | 15 nM | 
DLLNVTYNI | 787 nM | 297 nM | 194 nM | 1280 nM | 212 nM | 
IISLFYTFAI | 290 nM | 108 nM | 44 nM | 146 nM | 144 nM | 
STISWMMKL | 55 nM | 92 nM | 23 nM | 12 nM | 0.23 nM | 
LMANLAPHLL |  |  |  |  |  | IC50 (HLA-A*02:01; source organism: SARS-CoV1): 30 nM; IC50 (HLA-A*02:02; source organism: SARS-CoV1): 0.23 nM; IC50 (HLA-A*02:03; source organism: SARS-CoV1): 1.5 nM; IC50 (HLA-A*02:06; source organism: SARS-CoV1): 115 nM; IC50 (HLA-A*68:02; source organism: SARS-CoV1): 1170 nM
VVFLHVTYV |  |  |  |  |  | IC50 (HLA-A*02:01; source organism: SARS-CoV1): 3.9 nM; IC50 (HLA-A*02:02; source organism: SARS-CoV1): 7.8 nM; IC50 (HLA-A*02:03; source organism: SARS-CoV1): 0.28 nM; IC50 (HLA-A*02:06; source organism: SARS-CoV1): 3.9 nM; IC50 (HLA-A*68:02; source organism: SARS-CoV1): 1 nM
LMDCIIFES |  |  |  |  |  | IC50 (HLA-A*02:01; [4]): 99 nM; IC50 (HLA-A*02:02; [4]): 30 nM; IC50 (HLA-A*02:03; [4]): 825 nM; IC50 (HLA-A*02:06; [4]): 300 nM; IC50 (HLA-A*68:02; [4]): 425 nM
AADLTQIFEV | 17 nM | 1240 nM | 404 nM | 11 nM | 4350 nM | 
NVFISPASI | 136 nM | 202 nM | 0.73 nM | 660 nM | 1.9 nM | 
STYPGNTFV | 64 nM | 11 nM | 0.19 nM | 0.46 nM | 0.24 nM | 
TISGNIYSA | 207 nM | 85 nM | 19 nM | 179 nM | 11 nM | 

— the Immune Epitope Database (IEDB)
